Target: Hcf106 G6CV14C (Pisum sativum)
Test: cross-linking

- stoichiometry N: < 8
Substance: Hcf106 G6CV14C (natural protein)
